Laboratory results taken from article PMC4583294.

Experiments:
[1] = target: HMGB1 protein, wild-type, reduced (residues 1-214) (rat)
[2] = target: HMGB1 lacking the acidic C-tail (HMGB1ΔC, residues 1-185) (rat)
Chain of HMGB1 lacking the acidic C-tail (HMGB1ΔC, residues 1-185) (rat) (P09429 1-185, stated change not applied): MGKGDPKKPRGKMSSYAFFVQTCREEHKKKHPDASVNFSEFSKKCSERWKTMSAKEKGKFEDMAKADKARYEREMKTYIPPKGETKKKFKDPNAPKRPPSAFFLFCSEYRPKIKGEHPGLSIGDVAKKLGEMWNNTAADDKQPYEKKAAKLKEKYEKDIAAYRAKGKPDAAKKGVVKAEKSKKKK

- inhibition of HMGB1-mediated DNA bending (ligase-mediated circularization of a 123-bp DNA; 50 nM reduced HMGB1, 1-15 nM H1) [1]: 90%
- inhibition of HMGB1ΔC-mediated DNA bending (ligase-mediated circularization of a 123-bp DNA; 50 nM reduced HMGB1ΔC, 1-15 nM H1) [2]: 40%
Substance: Recombinant mouse histone H1° (referred to as histone H1) (from UniProt P10922 1-194) (natural protein)
